The record followed here is the supplement of paper PMC10724198.

The test system of data set [1] is Saccharomyces cerevisiae. Briefly: protein stability index of tFT-peptide fusion in wild type (PSI (0-1 scale)); higher = more stable (slower turnover). As to conditions: genetic background: wild type.
Data set [2] has as its system Saccharomyces cerevisiae. As to the kind of experiment: protein stability index of tFT-peptide fusion in deletion strain of DOA10 (PSI (0-1 scale)); higher = more stable (slower turnover). As for the experimental part: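 MPS profiling in S. cerevisiae of two library types built from selected 12-aa C-degron peptides (IN1, IN2, LN1, LN3, VN2, R1-R5, W1-W3, Atg1 and Rpa12 C-termini): saturation mutagenesis libraries and C-terminal +1 capping libraries (13 aa). Each peptide is fused to the C-terminus of a sfGFP-mCherry timer, after a GGGS linker. Cells are FACS-sorted into 8 mCherry/sfGFP bins and sequenced. PSI runs from 0 (unstable) to 1 (stable), measured once in wild type and in the das1Δ or doa10Δ background.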

Data set [3] concerns Saccharomyces cerevisiae. As to the kind of experiment: protein stability index of tFT-peptide fusion (C-terminal peptide) (PSI (0-1 scale)); higher = more stable (slower turnover). Particulars: genetic background: wild type; temperature: 30 C.
Data set [4] deals with Saccharomyces cerevisiae. Described as above. As for the experimental part: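 MPS profiling in S. cerevisiae of the tFT-X12 degron library: putative degron peptides plus stable controls, 12 aa, fused to the C-terminus of a sfGFP-mCherry timer. Cells are FACS-sorted into 8 mCherry/sfGFP bins and deep-sequenced. PSI runs from 0 (unstable) to 1 (stable). Backgrounds are wild type, das1Δ and doa10Δ at 30 °C, and wild type, das1Δ, cdc34-1 and cdc53-1 at 37 °C; 2-3 technical replicates each.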

± gives the standard deviation of the averaged measurements.
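Throughout, for protein stability index of tFT-peptide fusion (C-terminal peptide): PSI is a weighted mean of sequencing reads over stability bins, variants kept only with over 10 reads, mCherry proximal and sfGFP distal, peptide attached via GGGS linker.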
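Throughout, for protein stability index of tFT-peptide fusion in deletion strain of DOA10: PSI per variant is the weighted mean of its sequencing read distribution over the sorted stability bins, counting only variants with over 10 reads summed across bins.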
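Throughout, for protein stability index of tFT-peptide fusion in wild type: PSI derived as read-weighted mean over the 8 sorting bins, only variants exceeding 10 total reads kept, mCherry placed adjacent to the peptide and sfGFP distal.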

GLYMCSVGCWFRT: the protein stability index in the data set with Saccharomyces cerevisiae [1] was 0.227; in the data set with Saccharomyces cerevisiae [2], 0.554.

For the sequence GLYMCSVGCWIR, the values for the protein stability index with Saccharomyces cerevisiae [1] and with Saccharomyces cerevisiae [2] were 0.179 and 0.402, respectively.

Regarding GLYMCSVGCWLR, the protein stability index in the data set with Saccharomyces cerevisiae [1] was determined as 0.212; in the data set with Saccharomyces cerevisiae [2], 0.537.

For the sequence GLYMCSVGCWWR, the protein stability index came to 0.355 with Saccharomyces cerevisiae [1] and 0.634 with Saccharomyces cerevisiae [2].

With GLYMCSVGKWFR, the values for the protein stability index with Saccharomyces cerevisiae [1] and in the data set with Saccharomyces cerevisiae [2] were 0.637 and 0.674, respectively.

GLYMCSVRCWFR: the protein stability index in the data set with Saccharomyces cerevisiae [1] was 0.382; in the data set with Saccharomyces cerevisiae [2], 0.442.

GLYMCSVTCWFR: the figures for the protein stability index in the data set on Saccharomyces cerevisiae [1] and in the data set with Saccharomyces cerevisiae [2] were 0.265 and 0.327, respectively.

GLYMDSVGCWFR: the protein stability index was determined as 0.521 with Saccharomyces cerevisiae [1] and 0.727 in the data set on Saccharomyces cerevisiae [2].

GLYMMSVGCWFR: the protein stability index was found to be 0.26 with Saccharomyces cerevisiae [1] and 0.604 in the data set with Saccharomyces cerevisiae [2].

GLYMVSVGCWFR: the results for the protein stability index in the data set with Saccharomyces cerevisiae [1] and with Saccharomyces cerevisiae [2] were 0.176 and 0.38, respectively.

Consider GLYMWSVGCWFR, for which the protein stability index in the data set on Saccharomyces cerevisiae [1] is 0.278; in the data set on Saccharomyces cerevisiae [2], 0.601.

GRYMCSVGCWFR: the protein stability index is 0.385 with Saccharomyces cerevisiae [1] and 0.669 in the data set on Saccharomyces cerevisiae [2].

For the sequence ISLRVLLPLYFR, the figures for the protein stability index in the data set with Saccharomyces cerevisiae [1] and in the data set with Saccharomyces cerevisiae [2] were 0.286 and 0.588, respectively.

Consider KSLRVLLPLYFR, for which the protein stability index with Saccharomyces cerevisiae [1] came to 0.288; with Saccharomyces cerevisiae [2], 0.654.

Take QITLPMCPLLLR: the figures for the protein stability index with Saccharomyces cerevisiae [1] and with Saccharomyces cerevisiae [2] were 0.288 and 0.645, respectively.

In the case of QVTRLDAIYFRI, the figures for the protein stability index with Saccharomyces cerevisiae [1] and in the data set with Saccharomyces cerevisiae [2] were 0.346 and 0.693, respectively.

Turning to RLVSLPILLFFR, the protein stability index stood at 0.0755 in the data set on Saccharomyces cerevisiae [1] and 0.614 in the data set with Saccharomyces cerevisiae [2].

Take RPLRVLLPLYFR: the protein stability index was determined as 0.355 with Saccharomyces cerevisiae [1] and 0.666 in the data set with Saccharomyces cerevisiae [2].

For the sequence RRTRLDAIYFRI, the protein stability index turned out to be 0.422 with Saccharomyces cerevisiae [1] and 0.599 in the data set with Saccharomyces cerevisiae [2].

For RSLRILLPLYFR, the protein stability index stood at 0.253 in the data set with Saccharomyces cerevisiae [1] and 0.655 in the data set on Saccharomyces cerevisiae [2].

As for RSLRVDLPLYFR, the protein stability index turned out to be 0.203 with Saccharomyces cerevisiae [1] and 0.69 in the data set with Saccharomyces cerevisiae [2].

On to RSLRVLEPLYFR, for which the protein stability index came to 0.412 in the data set with Saccharomyces cerevisiae [1] and 0.69 with Saccharomyces cerevisiae [2].

As to RSLRVLLPLDFR, the protein stability index was 0.666 in the data set with Saccharomyces cerevisiae [1] and 0.723 with Saccharomyces cerevisiae [2].

As for RSLRVLLPLIFR, the protein stability index in the data set with Saccharomyces cerevisiae [1] was found to be 0.375; in the data set on Saccharomyces cerevisiae [2], 0.671.

RSLRVLLPLYFR: the protein stability index was determined as 0.3478 ± 0.0013 with Saccharomyces cerevisiae [3]; 0.289 in the data set with Saccharomyces cerevisiae [1]; 0.082 ± 0.034 with Saccharomyces cerevisiae [4] (genetic background: cdc34-1, temperature: 37 C); 0.0762 ± 0.025 in the data set on Saccharomyces cerevisiae [4] (genetic background: cdc53-1, temperature: 37 C); 0.234 ± 0.029 with Saccharomyces cerevisiae [4] (genetic background: das1 deletion, temperature: 30 C); 0.271 ± 0.004 in the data set with Saccharomyces cerevisiae [4] (genetic background: das1 deletion, temperature: 37 C). The protein stability index was 0.66 ± 0.029 in the data set with Saccharomyces cerevisiae [4] (genetic background: doa10 deletion, temperature: 30 C); 0.234 ± 0.022 with Saccharomyces cerevisiae [4] (genetic background: wild type, temperature: 30 C); 0.266 ± 0.043 with Saccharomyces cerevisiae [4] (genetic background: wild type, temperature: 37 C); 0.66 in the data set with Saccharomyces cerevisiae [2].

Take RSLRVLLPLYFRE: the protein stability index in the data set on Saccharomyces cerevisiae [1] amounted to 0.356; with Saccharomyces cerevisiae [2], 0.703.

Regarding RSLRVLLPLYFRP, the protein stability index with Saccharomyces cerevisiae [1] came to 0.291; in the data set on Saccharomyces cerevisiae [2] it was 0.638.

Regarding RSLRVLLPLYHR, the protein stability index was found to be 0.626 with Saccharomyces cerevisiae [1] and 0.682 in the data set with Saccharomyces cerevisiae [2].

Regarding RSLRVLLPLYLR, the protein stability index with Saccharomyces cerevisiae [1] stood at 0.29; in the data set with Saccharomyces cerevisiae [2], 0.671.

Turning to RSLRVLLPLYSR, the protein stability index in the data set on Saccharomyces cerevisiae [1] is 0.609; in the data set on Saccharomyces cerevisiae [2], 0.642.

RSLRVLLPTYFR: the protein stability index with Saccharomyces cerevisiae [1] stood at 0.569; in the data set on Saccharomyces cerevisiae [2], 0.664.

For the sequence RSLVVLLPLYFR, the values for the protein stability index in the data set on Saccharomyces cerevisiae [1] and with Saccharomyces cerevisiae [2] were 0.257 and 0.634, respectively.

In the case of RVERLDAIYFRI, the protein stability index was 0.491 in the data set on Saccharomyces cerevisiae [1] and 0.682 with Saccharomyces cerevisiae [2].

With RVLRLDAIYFRI, the figures for the protein stability index in the data set with Saccharomyces cerevisiae [1] and in the data set with Saccharomyces cerevisiae [2] were 0.376 and 0.666, respectively.

Consider RVSRLDAIYFRI, for which the figures for the protein stability index with Saccharomyces cerevisiae [1] and in the data set on Saccharomyces cerevisiae [2] were 0.445 and 0.671, respectively.

As for RVTFLDAIYFRI, the results for the protein stability index in the data set on Saccharomyces cerevisiae [1] and in the data set on Saccharomyces cerevisiae [2] were 0.438 and 0.621, respectively.

With RVTGLDAIYFRI, the protein stability index with Saccharomyces cerevisiae [1] stood at 0.534; with Saccharomyces cerevisiae [2], 0.683.

For RVTRLDAIFFRI, the protein stability index was 0.364 in the data set with Saccharomyces cerevisiae [1] and 0.712 in the data set on Saccharomyces cerevisiae [2].

As to RVTRLDAIPFRI, the protein stability index with Saccharomyces cerevisiae [1] stood at 0.69; in the data set on Saccharomyces cerevisiae [2] it was 0.724.

With RVTRLDAIQFRI, the protein stability index was 0.658 in the data set with Saccharomyces cerevisiae [1] and 0.698 with Saccharomyces cerevisiae [2].

RVTRLDAIYARI: the results for the protein stability index in the data set with Saccharomyces cerevisiae [1] and with Saccharomyces cerevisiae [2] were 0.684 and 0.724, respectively.

Regarding RVTRLDAIYFLI, the protein stability index amounted to 0.0749 in the data set on Saccharomyces cerevisiae [1] and 0.119 in the data set with Saccharomyces cerevisiae [2].

Regarding RVTRLDAIYFRF, the protein stability index turned out to be 0.415 in the data set with Saccharomyces cerevisiae [1] and 0.718 in the data set with Saccharomyces cerevisiae [2].

For RVTRLDAIYFRIK, the results for the protein stability index with Saccharomyces cerevisiae [1] and with Saccharomyces cerevisiae [2] were 0.615 and 0.694, respectively.

Take RVTRLDAIYFRIS: the values for the protein stability index in the data set with Saccharomyces cerevisiae [1] and in the data set on Saccharomyces cerevisiae [2] were 0.206 and 0.271, respectively.

As for RVTRLDAIYFRIT, the protein stability index in the data set with Saccharomyces cerevisiae [1] worked out at 0.16; in the data set on Saccharomyces cerevisiae [2], 0.243.

Turning to RVTRLDAIYFSI, the protein stability index in the data set on Saccharomyces cerevisiae [1] came to 0.629; with Saccharomyces cerevisiae [2], 0.713.

RVTRLDAIYNRI: the protein stability index is 0.697 with Saccharomyces cerevisiae [1] and 0.738 in the data set on Saccharomyces cerevisiae [2].

On to RVTRLDMIYFRI, for which the results for the protein stability index in the data set with Saccharomyces cerevisiae [1] and with Saccharomyces cerevisiae [2] were 0.236 and 0.658, respectively.

RVTRLDQIYFRI: the protein stability index is 0.403 in the data set with Saccharomyces cerevisiae [1] and 0.696 in the data set with Saccharomyces cerevisiae [2].

RVTRLDRIYFRI: the protein stability index with Saccharomyces cerevisiae [1] was 0.243; in the data set on Saccharomyces cerevisiae [2], 0.566.

For the sequence RVTRMDAIYFRI, the protein stability index with Saccharomyces cerevisiae [1] came out at 0.365; in the data set on Saccharomyces cerevisiae [2], 0.683.

Regarding TLVSLPILLFFR, the protein stability index turned out to be 0.0732 in the data set with Saccharomyces cerevisiae [1] and 0.613 in the data set with Saccharomyces cerevisiae [2].

Consider VLYMCSVGCWFR, for which the protein stability index was determined as 0.311 in the data set on Saccharomyces cerevisiae [1] and 0.521 in the data set with Saccharomyces cerevisiae [2].

For the sequence WITLPMCPLLLR, the results for the protein stability index with Saccharomyces cerevisiae [1] and in the data set with Saccharomyces cerevisiae [2] were 0.31 and 0.606, respectively.
